Values belong to the binder of their own block, whether it stands above or below them.
Legend:
[1] = target: T1, human SIRPα, endogenous, on THP-1 cells (human, UniProt P78324 31-504); assay: flow cytometry competition on THP-1 cells against 100 nM fluorescent CD47/streptavidin tetramers
T1 construct: whole, on cells; also called SIRP-alpha

[2] = target: T1, human SIRPα, endogenous, on THP-1 cells; assay: flow cytometry competition on THP-1 cells against CD47 tetramers

IC50 [1]: ~0.27 nM
B1: KWAR23, monoclonal CD47-blocking anti-human SIRPα antibody (purified from hybridoma supernatant) (antibody, V domains shown)
VH: EVQLQQSGAELVKPGASVKLSCTASGFNIKDYYIHWVQQRTEQGLEWIGRIDPEDGETKYAPKFQDKATITADTSSNTAYLHLSSLTSEDTAVYYCARWGAYWGQGTLVTVSS
VL: QIVLTQSPAIMSASPGEKVTLTCSASSSVSSSYLYWYQQKPGSSPKLWIYSTSNLASGVPARFSGSGSGTSYSLTISSMEAEDAASYFCHQWSSYPRTFGAGTKLELK
notes: Mouse hybridoma antibody purified by protein G chromatography; also called KWAR23 antibody; intact KWAR23

IC50 [2]: ~35 nM
B2: KWAR23 scFv LH (N-terminal light chain), monomer expressed in E. coli (scFv)
scFv: QIVLTQSPAIMSASPGEKVTLTCSASSSVSSSYLYWYQQKPGSSPKLWIYSTSNLASGVPARFSGSGSGTSYSLTISSMEAEDAASYFCHQWSSYPRTFGAGTKLELKGTTAASGSSGGSSSGAEVQLQQSGAELVKPGASVKLSCTASGFNIKDYYIHWVQQRTEQGLEWIGRIDPEDGETKYAPKFQDKATITADTSSNTAYLHLSSLTSEDTAVYYCARWGAYWGQGTLVTVS
notes: also called LH scFv; LH monomer

IC50 [2]: ~35 nM
B3: KWAR23 scFv HL (N-terminal heavy chain), monomer expressed in E. coli (scFv)
scFv: EVQLQQSGAELVKPGASVKLSCTASGFNIKDYYIHWVQQRTEQGLEWIGRIDPEDGETKYAPKFQDKATITADTSSNTAYLHLSSLTSEDTAVYYCARWGAYWGQGTLVTVSGGGGSGGGGSGGGGSQIVLTQSPAIMSASPGEKVTLTCSASSSVSSSYLYWYQQKPGSSPKLWIYSTSNLASGVPARFSGSGSGTSYSLTISSMEAEDAASYFCHQWSSYPRTFGAGTKLELK
notes: also called HL scFv; HL monomer

Reference: patent publication US20180319883A1 (Stanford University, published 2018)
